Substitutions are numbered along the chain they refer to.
B1: ePGT121.15.H1.L1 (antibody, V domains shown)
VH: QMQLQESGPGLVKPGETLSLTCSVSGASISSSYWSWLRETPGKGLEWIGYTHHSGDTNYAPSLKSRVHLGLHPSKNQVSLSLTSVTAADTAVYYCARTLHGRRIYGVVAFNEWFTYFYWEVWGNGTQVTVSS
VL: SDISVAPGETVRISCGGESIGSRAVQWYQHRAGQAPKLIIYNNQDRPPGIPERFSGSPDIDFGTTATLTITNVEAGDEATYYCHIWDSRRPTNWVFGGGTTLTVL
B2: ePGT121.15.H6.L1 (antibody, V domains shown)
VH: B1 VH with W113F, N124K
VL: B1 VL

What was measured:
[1] = biological target: HIV Env of the 113-member cross-clade virus panel (Table 6); test: cell-based or functional assay
[2] = biological target: HIV Env of the 106-virus cross-clade panel (Table 5); test: cell-based or functional assay

Binder | Breadth [1] | GeoMean [1] | % Breadth [2] | Median IC50 [2] | breadth of neutralization at an IC80 of 0.01 microg/ml [2] | median IC80, 106-virus panel [2] | neutralization breadth (IC80), 106-virus panel [2]
B1 | 76% | 0.0061 | 75% | 1 ng/mL | 50% | 9.3 ng/mL | 69%
B2 | 77% | 0.0048 | – | – | – | – | –

Reference: patent US20210292396A1
